According to PMC2175296:
Where “and” joins values, the source holds several entries; their conditions need not be identical. Identical values can stand only once.

Biological target: GST–hEST1A (recombinant full-length human EST1A/SMG6 as N-terminal GST fusion) (human) (UniProt Q86US8)
Assay: pull-down

Chain of UniProt Q86US8 (Q86US8 whole entry, the tested form may be a part): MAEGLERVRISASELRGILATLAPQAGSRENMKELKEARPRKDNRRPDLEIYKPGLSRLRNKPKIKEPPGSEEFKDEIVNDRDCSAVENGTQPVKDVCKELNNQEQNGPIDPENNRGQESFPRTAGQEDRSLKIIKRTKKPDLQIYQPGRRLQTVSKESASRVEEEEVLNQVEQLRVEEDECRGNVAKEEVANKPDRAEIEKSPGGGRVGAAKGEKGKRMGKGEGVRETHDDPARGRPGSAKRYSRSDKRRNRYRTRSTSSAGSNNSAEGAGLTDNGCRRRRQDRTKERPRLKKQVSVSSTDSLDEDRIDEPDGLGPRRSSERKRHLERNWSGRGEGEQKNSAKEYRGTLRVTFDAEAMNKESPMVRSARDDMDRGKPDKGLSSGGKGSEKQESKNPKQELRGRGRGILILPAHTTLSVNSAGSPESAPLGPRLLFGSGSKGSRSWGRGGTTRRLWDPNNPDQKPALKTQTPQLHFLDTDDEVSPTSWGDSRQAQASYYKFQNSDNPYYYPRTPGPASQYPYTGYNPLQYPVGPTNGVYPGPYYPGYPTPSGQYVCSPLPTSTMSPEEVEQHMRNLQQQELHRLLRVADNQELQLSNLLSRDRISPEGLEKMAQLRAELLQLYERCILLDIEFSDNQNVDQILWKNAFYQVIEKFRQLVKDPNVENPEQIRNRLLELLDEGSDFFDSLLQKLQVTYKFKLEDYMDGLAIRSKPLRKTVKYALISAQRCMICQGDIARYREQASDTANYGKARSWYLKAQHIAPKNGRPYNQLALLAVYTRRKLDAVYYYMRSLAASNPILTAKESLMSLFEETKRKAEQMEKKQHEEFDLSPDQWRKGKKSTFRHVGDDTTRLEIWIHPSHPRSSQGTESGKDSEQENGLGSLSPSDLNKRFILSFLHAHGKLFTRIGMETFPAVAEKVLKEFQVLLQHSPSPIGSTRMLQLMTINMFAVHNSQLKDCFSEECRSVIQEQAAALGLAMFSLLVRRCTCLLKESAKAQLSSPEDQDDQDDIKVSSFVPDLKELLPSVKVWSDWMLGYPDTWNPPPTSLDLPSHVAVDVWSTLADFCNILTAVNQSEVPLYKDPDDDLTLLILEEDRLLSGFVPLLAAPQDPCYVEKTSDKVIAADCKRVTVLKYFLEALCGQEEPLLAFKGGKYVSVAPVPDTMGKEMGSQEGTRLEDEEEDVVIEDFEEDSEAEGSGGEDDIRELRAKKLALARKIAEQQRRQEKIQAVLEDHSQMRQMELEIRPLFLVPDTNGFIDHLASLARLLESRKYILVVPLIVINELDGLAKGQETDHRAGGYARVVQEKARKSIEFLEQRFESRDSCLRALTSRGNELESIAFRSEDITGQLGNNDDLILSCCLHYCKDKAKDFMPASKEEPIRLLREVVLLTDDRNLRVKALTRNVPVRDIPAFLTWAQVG

percent of telomerase activity associated with the beads: 10 percent and 30 percent
Substance: telomerase, expressed and reconstituted in insect cells or in RRL
